The target in this data set is T1, CD271 (NGFR, p75NTR)/Fc chimera (Homo sapiens, UniProt P08138 P08138:29-250).
T1 chain: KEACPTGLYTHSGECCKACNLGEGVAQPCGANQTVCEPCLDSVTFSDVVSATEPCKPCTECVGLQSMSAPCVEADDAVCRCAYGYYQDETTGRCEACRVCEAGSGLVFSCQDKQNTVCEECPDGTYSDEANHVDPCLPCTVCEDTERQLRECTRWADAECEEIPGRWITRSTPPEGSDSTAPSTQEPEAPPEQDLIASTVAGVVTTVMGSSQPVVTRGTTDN
In words: size exclusion HPLC, 0.01 M PBS pH 7.4, room temperature, aptamer to protein 5:1; complex elutes at 21.2 min. As to conditions: tags: human IgG1 Fc chimera, Sigma-Aldrich N8898 (lyophilized with PBS salts and BSA); chain copies: 2; label: biotin.

B1: 1391-Motif (ssDNA)
DNA: TACGACTCACTATAGGGATCCAAGAAAGAAAAAGGAGAAAGGGGGGGGGGAATTCCCTTTAGTGAGGGTT
modifications: biotinylated for SPR
On to B1, for which the binding result was “binds”.

For the origin of these results see patent US20150376619, “APTAMERS THAT BIND CD271” (VIVONICS, INC., published 2015).
